Experimental data from the array DNA melting data of Ke et al..

Assay: melting temperature; melt of duplexes
Details: sodium 0.0675 M; strand 1 µM

Row | Substance | Tm
1 | CGACGTGCCATATGTGCTG+CAGCACATGGGGCACGTCG (((((((((..((((((((+))))))))..))))))))) | 56.7 °C
2 | CGACGTGCCATATGTGCTG+CAGCACATGTAGCACGTCG ((((((((.(.((((((((+)))))))).).)))))))) | 51.3 °C
3 | CGACGTGCCATATGTGCTG+CAGCACATGTGGCACGTCG ((((((((((.((((((((+)))))))).)))))))))) | 60.3 °C
4 | CGACGTGCCATATGTGCTG+CAGCACATTAGGCACGTCG (((((((((..((((((((+))))))))..))))))))) | 55.6 °C
5 | CGACGTGCCATATGTGCTG+CAGCACATTCAGCACGTCG ((((((((...((((((((+))))))))...)))))))) | 50.2 °C
6 | CGACGTGCCATATGTGCTG+CAGCACATTCCGCACGTCG ((((((((...((((((((+))))))))...)))))))) | 48.1 °C
7 | CGACGTGCCATATGTGCTG+CAGCACATTCTGCACGTCG ((((((((...((((((((+))))))))...)))))))) | 48.8 °C
8 | CGACGTGCCATATGTGCTG+CAGCACATTGCGCACGTCG ((((((((...((((((((+))))))))...)))))))) | 51.5 °C
9 | CGACGTGCCATATGTGCTG+CAGCACATTTAGCACGTCG ((((((((.(.((((((((+)))))))).).)))))))) | 49.7 °C
10 | CGACGTGCCATATGTGCTG+CAGCACATTTTGCACGTCG ((((((((.(.((((((((+)))))))).).)))))))) | 49.6 °C
11 | CGACGTGCCCAATGTGCTG+CAGCACATAAAGCACGTCG ((((((((...((((((((+))))))))...)))))))) | 50.1 °C
12 | CGACGTGCCCAATGTGCTG+CAGCACATAACGCACGTCG ((((((((...((((((((+))))))))...)))))))) | 47.3 °C
13 | CGACGTGCCCAATGTGCTG+CAGCACATACTGCACGTCG ((((((((...((((((((+))))))))...)))))))) | 47.5 °C
14 | CGACGTGCCCAATGTGCTG+CAGCACATAGCGCACGTCG ((((((((.(.((((((((+)))))))).).)))))))) | 48.9 °C
15 | CGACGTGCCCAATGTGCTG+CAGCACATAGTGCACGTCG ((((((((.(.((((((((+)))))))).).)))))))) | 46.2 °C
16 | CGACGTGCCCAATGTGCTG+CAGCACATCAAGCACGTCG ((((((((...((((((((+))))))))...)))))))) | 48.9 °C
17 | CGACGTGCCCAATGTGCTG+CAGCACATCAGGCACGTCG (((((((((..((((((((+))))))))..))))))))) | 53.9 °C
18 | CGACGTGCCCAATGTGCTG+CAGCACATCCCGCACGTCG ((((((((...((((((((+))))))))...)))))))) | 47.9 °C
19 | CGACGTGCCCAATGTGCTG+CAGCACATCGCGCACGTCG ((((((((.(.((((((((+)))))))).).)))))))) | 48.7 °C
20 | CGACGTGCCCAATGTGCTG+CAGCACATCTAGCACGTCG ((((((((...((((((((+))))))))...)))))))) | 48.8 °C
21 | CGACGTGCCCAATGTGCTG+CAGCACATCTCGCACGTCG ((((((((...((((((((+))))))))...)))))))) | 47.6 °C
22 | CGACGTGCCCAATGTGCTG+CAGCACATCTGGCACGTCG (((((((((..((((((((+))))))))..))))))))) | 53.8 °C
23 | CGACGTGCCCAATGTGCTG+CAGCACATGATGCACGTCG ((((((((...((((((((+))))))))...)))))))) | 49.7 °C
24 | CGACGTGCCCAATGTGCTG+CAGCACATGCCGCACGTCG ((((((((...((((((((+))))))))...)))))))) | 48.9 °C
25 | CGACGTGCCCAATGTGCTG+CAGCACATGCTGCACGTCG ((((((((...((((((((+))))))))...)))))))) | 47.8 °C
26 | CGACGTGCCCAATGTGCTG+CAGCACATGGGGCACGTCG ((((((((((.((((((((+)))))))).)))))))))) | 61.3 °C

Row | Substance | Tm
27 | CGACGTGCCCAATGTGCTG+CAGCACATGTTGCACGTCG ((((((((...((((((((+))))))))...)))))))) | 49.4 °C
28 | CGACGTGCCCAATGTGCTG+CAGCACATTCCGCACGTCG ((((((((..(((((((((+)))))))))..)))))))) | 49.3 °C
29 | CGACGTGCCCAATGTGCTG+CAGCACATTCTGCACGTCG ((((((((..(((((((((+)))))))))..)))))))) | 49.9 °C
30 | CGACGTGCCCAATGTGCTG+CAGCACATTGGGCACGTCG (((((((((((((((((((+))))))))))))))))))) | 66 °C
31 | CGACGTGCCCAATGTGCTG+CAGCACATTGTGCACGTCG ((((((((.((((((((((+)))))))))).)))))))) | 54.7 °C
32 | CGACGTGCCCCATGTGCTG+CAGCACATAAAGCACGTCG ((((((((...((((((((+))))))))...)))))))) | 47.7 °C
33 | CGACGTGCCCCATGTGCTG+CAGCACATAACGCACGTCG ((((((((...((((((((+))))))))...)))))))) | 45.7 °C
34 | CGACGTGCCCCATGTGCTG+CAGCACATAAGGCACGTCG (((((((((..((((((((+))))))))..))))))))) | 52.7 °C
35 | CGACGTGCCCCATGTGCTG+CAGCACATAATGCACGTCG ((((((((...((((((((+))))))))...)))))))) | 45.8 °C
36 | CGACGTGCCCCATGTGCTG+CAGCACATACAGCACGTCG ((((((((...((((((((+))))))))...)))))))) | 47.1 °C
37 | CGACGTGCCCCATGTGCTG+CAGCACATAGCGCACGTCG ((((((((.(.((((((((+)))))))).).)))))))) | 47.3 °C
38 | CGACGTGCCCCATGTGCTG+CAGCACATATTGCACGTCG ((((((((...((((((((+))))))))...)))))))) | 46.1 °C
39 | CGACGTGCCCCATGTGCTG+CAGCACATCACGCACGTCG ((((((((...((((((((+))))))))...)))))))) | 45.7 °C
40 | CGACGTGCCCCATGTGCTG+CAGCACATCATGCACGTCG ((((((((...((((((((+))))))))...)))))))) | 46.5 °C
41 | CGACGTGCCCCATGTGCTG+CAGCACATCCGGCACGTCG (((((((((..((((((((+))))))))..))))))))) | 51.4 °C
42 | CGACGTGCCCCATGTGCTG+CAGCACATCCTGCACGTCG ((((((((...((((((((+))))))))...)))))))) | 46.8 °C
43 | CGACGTGCCCCATGTGCTG+CAGCACATCGGGCACGTCG ((((((((((.((((((((+)))))))).)))))))))) | 57.2 °C
44 | CGACGTGCCCCATGTGCTG+CAGCACATCTTGCACGTCG ((((((((...((((((((+))))))))...)))))))) | 46.7 °C
45 | CGACGTGCCCCATGTGCTG+CAGCACATGATGCACGTCG ((((((((..(((((((((+)))))))))..)))))))) | 51.8 °C
46 | CGACGTGCCCCATGTGCTG+CAGCACATGCCGCACGTCG ((((((((..(((((((((+)))))))))..)))))))) | 50.3 °C
47 | CGACGTGCCCCATGTGCTG+CAGCACATGGCGCACGTCG ((((((((.((((((((((+)))))))))).)))))))) | 57.3 °C
48 | CGACGTGCCCCATGTGCTG+CAGCACATGGGGCACGTCG (((((((((((((((((((+))))))))))))))))))) | 67.7 °C
49 | CGACGTGCCCCATGTGCTG+CAGCACATGGTGCACGTCG ((((((((.((((((((((+)))))))))).)))))))) | 56.7 °C
50 | CGACGTGCCCCATGTGCTG+CAGCACATTACGCACGTCG ((((((((...((((((((+))))))))...)))))))) | 54.6 °C
51 | CGACGTGCCCCATGTGCTG+CAGCACATTAGGCACGTCG (((((((((..((((((((+))))))))..))))))))) | 52.5 °C
52 | CGACGTGCCCCATGTGCTG+CAGCACATTCAGCACGTCG ((((((((...((((((((+))))))))...)))))))) | 47.7 °C
